Experimental data as given in the supplement of paper PMC10567573.

B1: APBB1IP (parent)
chain: PPEPLSQVSMWDQRWQDHQPLLPI

Variants of: B1
Experiment: protein stability index of a GFP-peptide fusion (GPS, HEK-293T) (PSI 1-6); higher = more stable
Conditions: c terminus: a fixed tail appended
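Note: lentivirally expressed fusions sorted by FACS into six bins by GFP to DsRed ratio, PSI derived from sequencing read proportions per bin multiplied by bin number.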

Row | Variant | protein stability index
1 | PPEPLSQVSMWDQRWQDHSPLLPI | 2.31
2 | PPEPLSQVSMWVQRWQDHQPLLPI | 2.23
3 | PPEPLSQVSMWYQRWQDHQPLLPI | 2.31
4 | PPEPLSQVSMWWQRWQDHQPLLPI | 1.85
5 | PPEPLSQVSMWDTRWQDHQPLLPI | 2.78
6 | PPEPLSQVSMWDSRWQDHQPLLPI | 3.29
7 | PPEPLSQVSMWDIRWQDHQPLLPI | 2.72
8 | PPEPLSQVSMWDWRWQDHQPLLPI | 2.91
9 | PPEPLSQVSMWDDRWQDHQPLLPI | 3.51
10 | PPEPLSQVSMWDGRWQDHQPLLPI | 2.63
11 | PPEPLSQVSMWDVRWQDHQPLLPI | 2.49
12 | PPEPLSQVSMWDKRWQDHQPLLPI | 2.76
13 | PPEPLSQVSMWDFRWQDHQPLLPI | 2.4
14 | PPEPLSQVSMWDMRWQDHQPLLPI | 3.46
15 | PPEPLSQVSMWDPRWQDHQPLLPI | 2.77
16 | PPEPLSQVSMWDCRWQDHQPLLPI | 2.56
17 | PPEPLSQVSMWDARWQDHQPLLPI | 2.54
18 | PPEPLSQVSMWDNRWQDHQPLLPI | 3.5
19 | PPEPLSQVSMWDHRWQDHQPLLPI | 2.79
20 | PPEPLSQVSMWDERWQDHQPLLPI | 3.56
21 | PPEPLSQVSMWDLRWQDHQPLLPI | 2.16
22 | PPEPLSQVSMWDYRWQDHQPLLPI | 2.51
23 | PPEPLSQVSMWDRRWQDHQPLLPI | 2.6
24 | PPEPLSQVSMWDQRWQDHQPLNPI | 3.55

Row | Variant | protein stability index
25 | PPEPLSQVSMWDQRWQDHQPLFPI | 2.77
26 | PPEPLSQVSMWDQRWQDHQPLDPI | 3.89
27 | PPEPLSQVSMWDQRWQDHQPLAPI | 3.4
28 | PPEPLSQVSMWDQRWQDHQPLPPI | 3.12
29 | PPEPLSQVSMWDQRWQDHQPLHPI | 3.29
30 | PPEPLSQVSMWDQRWQDHQPLQPI | 3.68
31 | PPEPLSQVSMWDQRWQDHQPLKPI | 4.04
32 | PPEPLSQVSMWDQRWQDHQPLIPI | 2.49
33 | PPEPLSQVSMWDQRWQDHQPLCPI | 3.5
34 | PPEPLSQVSMWDQRWQDHQPLGPI | 3.8
35 | PPEPLSQVSMWDQRWQDHQPLSPI | 3.55
36 | PPEPLSQVSMWDQRWQDHQPLRPI | 3.54
37 | PPEPLSQVSMWDQRWQDHQPLMPI | 2.58
38 | PPEPLSQVSMWDQREQDHQPLLPI | 4.03
39 | PPEPLSQVSMWDQRKQDHQPLLPI | 4.05
40 | PPEPLSQVSMWDQRQQDHQPLLPI | 4.36
41 | PPEPLSQVSMWDQRFQDHQPLLPI | 3.62
42 | PPEPLSQVSMWDQRDQDHQPLLPI | 4.34
43 | PPEPLSQVSMWDQRVQDHQPLLPI | 3.93
44 | PPEPLSQVSMWDQRTQDHQPLLPI | 4.39
45 | PPEPLSQVSMWDQRIQDHQPLLPI | 3.65
46 | PPEPLSQVSMWDQRPQDHQPLLPI | 3.9
47 | PPEPLSQVSMWDQRYQDHQPLLPI | 3.14
48 | PPEPLSQVSMWDQRHQDHQPLLPI | 4.17

Row | Variant | protein stability index
49 | PPEPLSQVSMWDQRLQDHQPLLPI | 3.28
50 | PPEPLSQVSMWDQRAQDHQPLLPI | 3.88
51 | PPEPLSQVSMWDQRCQDHQPLLPI | 3.39
52 | PPEPLSQVSMWDQRNQDHQPLLPI | 3.7
53 | PPEPLSQVSMWDQRRQDHQPLLPI | 3.41
54 | PPEPLSQVSMWDQRSQDHQPLLPI | 3.95
55 | PPEPLSQVSMWDQRMQDHQPLLPI | 4.02
56 | PPEPLSQVSMWDQRGQDHQPLLPI | 3.62
57 | PPEPLSQVSMWDQRWQDCQPLLPI | 3.12
58 | PPEPLSQVSMWDQRWQDQQPLLPI | 3.01
59 | PPEPLSQVSMWDQRWQDKQPLLPI | 3.1
60 | PPEPLSQVSMWDQRWQDWQPLLPI | 3.02
61 | PPEPLSQVSMWDQRWQDEQPLLPI | 4.14
62 | PPEPLSQVSMWDQRWQDDQPLLPI | 4.05
63 | PPEPLSQVSMWDQRWQDTQPLLPI | 3.44
64 | PPEPLSQVSMWDQRWQDGQPLLPI | 3.55
65 | PPEPLSQVSMWDQRWQDRQPLLPI | 2.74
66 | PPEPLSQVSMWDQRWQDSQPLLPI | 3.11
67 | PPEPLSQVSMWDQRWQDLQPLLPI | 3.09
68 | PPEPLSQVSMWDQRWQDPQPLLPI | 3.34
69 | PPEPLSQVSMWDQRWQDMQPLLPI | 2.71
70 | PPEPLSQVSMWDQRWQDAQPLLPI | 2.79
71 | PPEPLSQVSMWDQRWQDFQPLLPI | 2.4
72 | PPEPLSQVSMWDQRWQDVQPLLPI | 2.83

Row | Variant | protein stability index
73 | PPEPLSQVSMWDQRWQDNQPLLPI | 2.97
74 | PPEPLSQVSMWDQRWQDIQPLLPI | 2.69
75 | PPEPLSQVSMWDQRWQDYQPLLPI | 3.2
76 | PPEPLSQVSMWDQRWQDHQSLLPI | 3.37
77 | PPEPLSQVSMWDQRWQDHQTLLPI | 2.84
78 | PPEPLSQVSMWDQRWQDHQYLLPI | 2.33
79 | PPEPLSQVSMWDQRWQDHQHLLPI | 3.23
80 | PPEPLSQVSMWDQRWQDHQVLLPI | 2.91
81 | PPEPLSQVSMWDQRWQDHQQLLPI | 3.26
82 | PPEPLSQVSMWDQRWQDHQNLLPI | 3.14
83 | PPEPLSQVSMWDQRWQDHQILLPI | 2.77
84 | PPEPLSQVSMWDQRWQDHQELLPI | 3.29
85 | PPEPLSQVSMWDQRWQDHQGLLPI | 3.38
86 | PPEPLSQVSMWDQRWQDHQKLLPI | 2.05
87 | PPEPLSQVSMWDQRWQDHQWLLPI | 2.33
88 | PPEPLSQVSMWDQRWQDHQALLPI | 2.75
89 | PPEPLSQVSMWDQRWQDHQLLLPI | 2.61
90 | PPEPLSQVSMWDQRWQDHQMLLPI | 3.03
91 | PPEPLSQVSMWDQRWQDHQRLLPI | 2.8
92 | PPEPLSQVSMWDQRWQDHQDLLPI | 3.33
93 | PPEPLSQVSMWDQRWQDHQFLLPI | 2.37
94 | PPEPLSQVSMWDQRWQDHQCLLPI | 2.95
